Data on 5 molecules can be found in US20120220029, “MUTANT SOX PROTEINS AND METHODS OF INDUCING PLURIPOTENCY” (Agency for Science, Technology and Research, published 2012).

Experiment in all cases: EMSA
(In general: A gel shift assay detects complexes by their altered migration in electrophoresis.)

Data set [1] has as its target Sox17HMG (Mus musculus, UniProt Q61473 SEQ:68-136). Conditions: label: 5'-Cy5.
The target of data set [2] is T1, Oct4 POU domain (Mus musculus, UniProt P20263 P20263:126-289). Conditions: tags: N-terminal MBP tag removed by TEV protease; label: 5'-Cy5.
Data set [3] addresses T2, Sox2HMGs (core HMG)/Oct4POU (Mus musculus, UniProt P48432;P20263 P48432:43-111,P20263:126-289). Conditions: label: 5'-Cy5. Here is the method: (§1) Electrophoretic mobility shift assays: All EMSAs were carried out using double-stranded 5′ Cy5-labeled DNA (Sigma Proligo, see Table 1) (Jauch, R., et al. J. Mol. Biol. (2008) 376(3):758-70). Binding buffer contains 20 mM Tris-HC1 pH 8.0, 50 μM ZnCl₂, 100 mM KCl, 10% glycerol, 2 mM 13-merceptoethanol, 0.1 mg/ml bovine serum albumin (BSA) and 0.1% (v/v) Igepal CA-630. 250nM dsDNA probes were mixed with analyte proteins singly or in combinations in binding buffer and incubated for 1 hr at 4° C. in dark. Samples were loaded into a pre-run 12% (w/v) IX Tris-glycine polyacrylamide gel in 1XTG (25 mM Tris, pH 8.3; 192 mM glycine) buffer to separate different species of bound and unbound probes. The fluorescence was detected using a Typhoon 9140 PhosphorImager (Amersham Biosciences).
(§2) FIG. 1: EMSAs to assess Sox7, Sox2HMGs and spacer nucleotides. To exclude artifacts that could have been caused by the length difference between the Sox2/Sox17 constructs, the differential assembly of the core Sox2HMG domain (termed Sox2HMGs) was tested. The domain spans the same range of amino acids of the Sox17 construct. The differential assembly of Sox7, another F group Sox protein with strong sequence similarities to Sox17 was also tested. Sox7 and Sox17 had comparably weak Oct4 heterodimerization on canonical elements whereas cooperative binding was observed on the compressed element. Thirdly, the spacer nucleotide of the canonical element on the remaining three possible nucleotides was varied (CATTGT(C/A/T/G)ATGCAAAT). The identity of the spacer nucleotide was found not to have a pronounced impact on the overall dimerization profile of the various Sox protein with Oct4. 50nM of Sox2HMGs, Sox7HMG and Sox17HMG were incubated with canonical elements containing different basebairs at position 7 of the Sox motif (C₁A₂T₃T₄G₅T₆(A/T/C/G)₇; A-D) and on the compressed element (E) in the absence (Lanes 1-3) or presence (Lanes 4-6) of 250 nM Oct4POU.

In data set [4] the target is T3, Sox2HMG1/Oct4POU (Mus musculus, UniProt P48432;P20263 P48432:33-141,P20263:126-289). The following applies: label: 5'-Cy5. Here is the method:
as §1
(§3) FIG. 8: Differential assembly of Sox2HMG and Oct4POU (A) and Sox17HMG and Oct4 (E) on a series of different motif configurations. Motif configurations were systematically designed as outlined in FIG. 1A using 30bp DNA elements containing identical Sox (CATTGTC) and Oct4 (ATGCAAAT) consensus sequences flanked by GC rich sequences. To minimize binding anomalies due to cryptic elements at the periphery or within the spacer region we used idealized motifs (CATTGTC for sox and ATGCAAAT for oct) and introduced G's and C's as spacer and boundary nucleotides. Each DNA element was mixed with individual transcription factor proteins as well as with both Sox2 and Oct4 DBDs in combination (See supplementary information). 250 nM of every cy5-labelled DNA element was incubated with 50 nM Sox2HMG1/Sox17HMG and 250 nM Oct4POU proteins alone and in combination followed by PAGE to assess the formation of ternary Sox/Oct4/DNA complex. The position of the various protein DNA complexes are marked by arrows. The number of spacer basepairs is indicated above and below the gels. X=-1 denotes the compressed and X=0 the canonical elements. The co-occurrence of canonical and compressed motifs within genomic regions co-bound by Sox2 and Oct4 in mouse embryonic stem cells are depicted in (B). […]

The target in data set [5] is T3, Sox2HMG1/Oct4POU. The following applies: label: 5'-Cy5. Here is the method:
as §1
Profiling of Sox/Oct4 Binding to Differentially Configured Motifs: To assess the preference of Sox2 and Oct4 to physically assemble on differentially configured sox/oct motifs in vitro, electrophoretic mobility shift assays (EMSA) were conducted using purified DNA binding domains (DBDs) of Sox2 and Oct4. The heterodimerization potential of Sox2/Oct4 DBD pairs was screened on a panel of systematically modified sox/oct composite motifs (FIG. 7A). A strong cooperative interaction of Sox2 and Oct4 on the canonical element was observed (x=0, FIG. 8A, lanes 5-7). […]
The source holds these as a separate data set.

For data set [6], the target named is T2, Sox2HMGs (core HMG)/Oct4POU. Conditions: label: 5'-Cy5. How it is done: (§4) 250nM dsDNA probes were mixed with analyte proteins singly or in combinations in binding buffer and incubated for 1 hr at 4° C. in dark. Samples were loaded into a pre-run 12% (w/v) IX Tris-glycine polyacrylamide gel in 1XTG (25 mM Tris, pH 8.3; 192 mM glycine) buffer to separate different species of bound and unbound probes. The fluorescence was detected using a Typhoon 9140 PhosphorImager (Amersham Biosciences).
(§5) FIG. 10: (A) Alignment of the amino acid sequence of all mouse Sox proteins. The Sox subfamilies (Bowles, J. et al., Dev. Biol. (2000) 227: 239-55) are indicated to the right. The numbering corresponds to the Sox17 sequence. Alpha helices are marked with a red bar. The FM wedge is indicated with an orange bar below the alignment and further DNA interacting residues are marked by black closed circles. Highly conserved and similar sequences are shaded in black or gray. The position of glutamate and lysine residues distinguishing Sox17 and Sox2 is marked by an arrow. The eight amino acids in helix 3 of Sox2 that were replaced by their corresponding counterparts found in Sox17 to construct the Sox2″¹⁷ protein are colored red. (B) structural model prepared using pymol by using the structural coordinates for Sox17 and the Sox2/Oct1 on DNA. The van-der-Waals surface of the DNA derived from the Sox2/Oct1 structure is shown in light gray. Sox17 (blue) was superimposed onto Sox2 (gray). Oct1 is shown in black. Note that the linker region connecting the POU specific and the POU homedomain is not present in the NMR derived model due to structural disorder. The glutamate (Sox17) and the lysine (Sox2) that were mutated are shown as ball-and-sticks. Note that the lysine exists in two alternative conformations in the NMR model. (C)Point mutations at the Sox/Oct4 interface swap the differential assembly behavior of Sox2 and Sox17 on the canonical versus the compressed element DNA element derived from a functional sox/oct element within the Nanog enhancer were used (Rodda, D. J. et al. J Biol Chem (2005) 280:24731-7). 2 denotes Sox2HMGs, 17: Sox17HMG, 2KE: Sox2KE, 17EK: Sox17EK and 2α17 the replacement of all Sox2 residues in helix 3 that differ from the corresponding Sox17 residues into their Sox17 counterpart. Sox proteins were incubated with DNA individually and in combination with Oct4.
This is another data set of the same source.

Data set [7] concerns the target Sox17EK HMG/Oct4POU (Mus musculus, UniProt Q61473;P20263 Q61473:68-136,P20263:126-289, Sox17 E122K). The following applies: label: 5'-Cy5. Here is the method:
as §4, §5

Data set [8] addresses Sox2KE HMG/Oct4POU (Mus musculus, UniProt P48432;P20263 P48432:43-111,P20263:126-289, Sox2 K95E). The following applies: label: 5'-Cy5. Here is the method:
as §4, §5

The target of data set [9] is T4, Sox17HMG/Oct4POU (Mus musculus, UniProt Q61473;P20263 Q61473:68-136,P20263:126-289). Conditions: label: 5'-Cy5. How it is done: as §4, §5
The target of data set [10] is T1, Oct4 POU domain. The following applies: tags: N-terminal MBP tag removed by TEV protease; label: 5'-Cy5. How it is done:
as §1
(§6) FIG. 9: (A) Differential assembly of Sox2/Oct4 and Sox17/Oct4 on the compressed and canonical elements. Proteins were added to 250nM DNA elements in the sequences indicated above the lanes. To distinguish shifts caused by Sox2 and Sox17 a N and C-terminally extended Sox2-HMG (Sox2HMG1) domain was used in these experiments. As a consequence, both, the Sox2/DNA and the Sox2/Oct4/DNA complex, migrate slower than the corresponding Sox17 complexes, allowing us to visualize a Sox2/Oct4 and Sox17/Oct4 DNA complex on the same gel. […]
This is another data set of the same source.

For data set [11], the target named is Sox2HMG1 (extended HMG domain) (Mus musculus, UniProt P48432 SEQ:33-141). The following applies: label: 5'-Cy5. How it is done:
as §1, §6

Data set [12] has as its target Sox7HMG/Oct4POU (Mus musculus, UniProt P40646;P20263 P40646:45-113,P20263:126-289). The following applies: label: 5'-Cy5. How it is done:
as §1, §2

The target in data set [13] is T4, Sox17HMG/Oct4POU. The following applies: label: 5'-Cy5. How it is done: as §1, §3
The source holds these as a separate data set.

T3 sequence (P48432 33-141, chain 1 of 2): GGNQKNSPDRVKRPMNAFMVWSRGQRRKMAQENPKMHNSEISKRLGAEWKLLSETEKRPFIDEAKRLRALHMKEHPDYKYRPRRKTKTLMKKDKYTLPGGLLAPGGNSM
T3 sequence (P20263 126-289, chain 2 of 2): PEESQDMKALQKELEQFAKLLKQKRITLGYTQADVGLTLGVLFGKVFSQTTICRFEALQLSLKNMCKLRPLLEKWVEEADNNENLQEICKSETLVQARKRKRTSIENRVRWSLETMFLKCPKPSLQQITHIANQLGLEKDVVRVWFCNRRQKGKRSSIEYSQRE
T2 sequence (P48432 43-111, chain 1 of 2): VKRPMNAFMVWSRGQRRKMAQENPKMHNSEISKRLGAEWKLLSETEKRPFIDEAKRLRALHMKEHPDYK
T2 sequence (P20263 126-289, chain 2 of 2): as the sequence (P20263 126-289, chain 2 of 2) above
Sequence of Sox17EK HMG/Oct4POU (Q61473 68-136 E122K, chain 1 of 2): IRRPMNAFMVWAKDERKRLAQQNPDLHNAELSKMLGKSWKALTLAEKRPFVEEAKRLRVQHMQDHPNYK
Sequence of Sox17EK HMG/Oct4POU (P20263 126-289, stated change not applied, chain 2 of 2): as the sequence (P20263 126-289, chain 2 of 2) above
T1 sequence (P20263 126-289, one chain of several): as the sequence (P20263 126-289, chain 2 of 2) above
T4 sequence (Q61473 68-136, chain 1 of 2): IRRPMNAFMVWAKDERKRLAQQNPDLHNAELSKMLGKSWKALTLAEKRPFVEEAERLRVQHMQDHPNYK
T4 sequence (P20263 126-289, chain 2 of 2): as the sequence (P20263 126-289, chain 2 of 2) above
Sequence of Sox17HMG (Q61473 68-136): as the sequence (Q61473 68-136, chain 1 of 2) above
Sequence of Sox2HMG1 (extended HMG domain) (P48432 33-141): as the sequence (P48432 33-141, chain 1 of 2) above
Sequence of Sox2KE HMG/Oct4POU (P48432 43-111, stated change not applied, chain 1 of 2): as the sequence (P48432 43-111, chain 1 of 2) above
Sequence of Sox2KE HMG/Oct4POU (P20263 126-289, stated change not applied, chain 2 of 2): as the sequence (P20263 126-289, chain 2 of 2) above
Sequence of Sox7HMG/Oct4POU (P40646 45-113, chain 1 of 2): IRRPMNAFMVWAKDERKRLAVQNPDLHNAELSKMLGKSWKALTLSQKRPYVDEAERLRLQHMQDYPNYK
Sequence of Sox7HMG/Oct4POU (P20263 126-289, chain 2 of 2): as the sequence (P20263 126-289, chain 2 of 2) above

B1: canonical sox/oct (0) (dsDNA)
DNA 1: GGCGCGGCATTGTCATGCAAATCGGCGGCG
DNA 2: CGCCGCCGATTTGCATGACAATGCCGCGCC
On to B1, for which the binding result in data set [1], in [2], in [3] and in data set [4] was “binds” in each case.

B2: order (dsDNA)
DNA 1: GGCGCGGATGCAAATCATTGTCCGGCGGCG
DNA 2: CGCCGCCGGACAATGATTTGCATCCGCGCC
Regarding B2, the binding result in [5] is “no binding”.

B3: Nanog canonical (dsDNA)
DNA 1: CATGGACATTGTAATGCAAAAGAAGCTG
DNA 2: CAGCTTCTTTTGCATTACAATGTCCATG
B3: the binding result in [6] and in data set [7] was “binds” each time.

B4: Nanog' compressed (-1) (dsDNA)
DNA 1: CTGGACATTGTATGCAAAAGAA
DNA 2: TTCTTTTGCATACAATGTCCAG
In the case of B4, the binding result was “binds” in [8], “binds” in data set [9] and “no binding” in data set [7].

B5: compressed sox/oct (-1) (dsDNA)
DNA 1: CGGCGCGGCATTGTATGCAAATCGGCGGCG
DNA 2: CGCCGCCGATTTGCATACAATGCCGCGCCG
Regarding B5, the binding result in data set [10] is recorded as “binds”; in data set [11], “binds”; in [1] it was “binds”; in data set [12], “binds”; in data set [3], “no binding”; in data set [13] it was “binds”. In data set [4], the binding result is listed as “no binding”.
